# In patent publication US20150299265A1 (Molecular Partners, published 2015):
# Molecular target: Human HER2 expressed on tumour cells (human, UniProt P04626 23-1255)
# Test: cell-based or functional assay
Binder,"% activity vs. DARPin # 41, BT474 cell proliferation [%]","IC50 [nM], inhibition of BT474 cell proliferation (BrdU) [nM]"
DARPin #46 (designed binder) MRGSHHHHHHGSDLGKKLLEAARAGQDDEVRILMANGADVNAKDFYGITPLHLAAAYGHLEIVEVLLKHGADVNAHDWNGWTPLHLAAKYGHLEIVEVLLKHGADVNAIDNAGKTPLHLAAAHGHLEIVEVLLKYGADVNAQDKFGKTAFDISIDNGNEDLAEILQKLGGGGSGGGGSRSDLGKKLLEAARAGQDDEVRILMANGADVNATDIHGHTPLHLAAAMGHLEIVEVLLKNGADVNANDWRGFTPLHLAALNGHLEIVEVLLKNGADVNATDTAGNTPLHLAAWFGHLEIVEVLLKNGADVNAQDKFGKTAFDISIDNGNEDLAEILQKLN,100,3.34
DARPin #47 (designed binder) MRGSHHHHHHGSDLGDKLLQSDLGIKLLFAAAKSQDDEVRILLAAGADVNAKDFQSVTPLHIAAQSGHLEIVEVLLKAGADVNAKDVTGDTPLHLAAQHGHLEIVEVLLKAGADVNAQDERGWTPADLAADWGHEDIAEVLQKLGGGGSGGGGSRSDLGIKLLVAAAQGQDDEVRILLAAGADVNAKDQQGATPLHLAAWKGHLEIVEVLLKAGADVNAKDLSGDTPLHIAAWFGHLEIVEVLLKAGADVNAQDTEGYTPADLAALYGHEDIAEVLQKLN,6.8,
DARPin #27 (designed binder) MRGSHHHHHHGSDLGVKLLWAAARGQDDEVRILLAAGADVNAKDFQGITPLHIAATNGHLEIVEVLLKAGADVNAKDITGETPLHHAADSGHLEIVEVLLKAGADVNAQDKAGVTPADLAAAWGHEDIAEVLQKLGGGGSGGGGSRSDLGIKLLQAANLGQDDEVRILLATGADVNAKDSIGQTPLHWAARRGHLEIVEVLLKAGADVNAKDEYGVTPLHLAASLGHLEIVEVLLKAGADVNAQDESGETPADLAALHGHEDIAEVLQKLN,37.8,4.57
DARPin #22 (designed binder) MRGSHHHHHHGSDLGDKLLQSDLGIKLLFAAAKSQDDEVRILLAAGADVNAKDFQSVTPLHIAAQSGHLEIVEVLLKAGADVNAKDVTGDTPLHLAAQHGHLEIVEVLLKAGADVNAQDERGWTPADLAADWGHEDIAEVLQKLGGGGSGGGGSRSDLGIKLLQAANLGQDDEVRILLATGADVNAKDSIGQTPLHWAARRGHLEIVEVLLKAGADVNAKDEYGVTPLHLAASLGHLEIVEVLLKAGADVNAQDESGETPADLAALHGHEDIAEVLQKLN,60.1,4.03
DARPin #45 (designed binder) MRGSHHHHHHGSDLGKKLLEAARAGQDDEVRILMANGADVNAKDFYGITPLHLAAAYGHLEIVEVLLKHGADVNAHDWNGWTPLHLAAKYGHLEIVEVLLKHGADVNAIDNAGKTPLHLAAAHGHLEIVEVLLKYGADVNAQDKFGKTAFDISIDNGNEDLAEILQKLGGGGSGGGGSRSDLGKKLLEAARAGQDDEVRILMANGADVNAKDEYGLTPLYLATAHGHLEIVEVLLKNGADVNAVDAIGFTPLHLAAFIGHLEIAEVLLKHGADVNAQDKFGKTAFDISIGNGNEDLAEILQKLN,100,1.55

# Now from value to binder:
"% activity vs. DARPin # 41, BT474 cell proliferation [%]","IC50 [nM], inhibition of BT474 cell proliferation (BrdU) [nM]",Binder
100,4.06,DARPin #66 (designed binder) MRGSHHHHHHGSDLGAKLLSDLGVKLLWAAARGQDDEVRILLAAGADVNAKDFQGITPLHIAAQSGHLEIVEVLLKAGADVNAKDVTGDTPLHLAAQHGHLVIVEVLLKAGADVNAQDERGWTPADLAADWGHEDIAEVLQKAAGSDLGKKLLEAARAGQDDEVRILMANGADVNAKDEYGLTPLYLATAHGHLEIVEVLLKNGADVNAVDAIGFTPLHLAAFIGHLEIAEVLLKHGADVNAQDKFGKTAFDISIGNGNEDLAEILQKAA
100,1.77,"DARPin #63 (designed binder, PEGylated at its C-terminal Cys residue) MRGSHHHHHHGSDLGAKLLSDLGVKLLWAAARGQDDEVRILLAAGADVNAKDFQGITPLHIAAQSGHLEIVEVLLKAGADVNAKDVTGDTPLHLAAQHGHLVIVEVLLKAGADVNAQDERGWTPADLAADWGHEDIAEVLQKLGGGGSGGGGSRSDLGKKLLEAARAGQDDEVRILMANGADVNAKDEYGLTPLYLATAHGHLEIVEVLLKNGADVNAVDAIGFTPLHLAAFIGHLEIAEVLLKHGADVNAQDKFGKTAFDISIGNGNEDLAEILQKAAGGGSGGGSC"
100,4.07,DARPin #65 (designed binder) MRGSHHHHHHGSDLGAKLLSDLGVKLLWAAARGQDDEVRILLAAGADVNAKDFQGITPLHIAAQSGHLEIVEVLLKAGADVNAKDVTGDTPLHLAAQHGHLVIVEVLLKAGADVNAQDERGWTPADLAADWGHEDIAEVLQKLGGGGSGGGGSRSDLGKKLLEAARAGQDDEVRILMANGADVNAKDEYGLTPLYLATAHGHLEIVEVLLKNGADVNAVDAIGFTPLHLAAFIGHLEIAEVLLKHGADVNAQDKFGKTAFDISIGNGNEDLAEILQKLNKLGGGGSGGGGSGGGGSGGGGSRSDLGKKLLEAARAGQDDEVRILMANGADVNAKDYFSHTPLHLAARNGHLKIVEVLLKAGADVNAKDFAGKTPLHLAANDGHLEIVEVLLKHGADVNAQDIFGKTPADIAADAGHEDIAEVLQKLN
100,5.35,DARPin #68 (designed binder) MRGSHHHHHHGSDLGAKLLSDLGVKLLWAAARGQDDEVRILLAAGADVNAKDFQGITPLHIAAQSGHLEIVEVLLKAGADVNAKDVTGDTPLHLAAQHGHLVIVEVLLKAGADVNAQDERGWTPADLAADWGHEDIAEVLQKAAGSPTPTPTTPTPTPTTPTPTPTGSDLGKKLLEAARAGQDDEVRILMANGADVNAKDEYGLTPLYLATAHGHLEIVEVLLKNGADVNAVDAIGFTPLHLAAFIGHLEIAEVLLKHGADVNAQDKFGKTAFDISIGNGNEDLAEILQKAA
100,4.87,DARPin #67 (designed binder) MRGSHHHHHHGSDLGAKLLSDLGVKLLWAAARGQDDEVRILLAAGADVNAKDFQGITPLHIAAQSGHLEIVEVLLKAGADVNAKDVTGDTPLHLAAQHGHLVIVEVLLKAGADVNAQDERGWTPADLAADWGHEDIAEVLQKAAGGGGSDLGKKLLEAARAGQDDEVRILMANGADVNAKDEYGLTPLYLATAHGHLEIVEVLLKNGADVNAVDAIGFTPLHLAAFIGHLEIAEVLLKHGADVNAQDKFGKTAFDISIGNGNEDLAEILQKAA
100,2.31,DARPin #64 (designed binder) MRGSHHHHHHGSDLGKKLLEAARAGQDDEVRILMANGADVNAKDYFSHTPLHLAARNGHLKIVEVLLKAGADVNAKDFAGKTPLHLAANDGHLEIVEVLLKHGADVNAQDIFGKTPADIAADAGHEDIAEVLQKLGGGGSGGGGSGGGGSGGGGSRSDLGAKLLSDLGVKLLWAAARGQDDEVRILLAAGADVNAKDFQGITPLHIAAQSGHLEIVEVLLKAGADVNAKDVTGDTPLHLAAQHGHLVIVEVLLKAGADVNAQDERGWTPADLAADWGHEDIAEVLQKLGGGGSGGGGSRSDLGKKLLEAARAGQDDEVRILMANGADVNAKDEYGLTPLYLATAHGHLEIVEVLLKNGADVNAVDAIGFTPLHLAAFIGHLEIAEVLLKHGADVNAQDKFGKTAFDISIGNGNEDLAEILQKLN
